The record followed here is the nanobody polyreactivity screen of Harvey et al. (2022).

A short description of the series: yeast display, Sf9 membrane polyspecificity reagent, FACS + sequencing; frameworks hold sequencing errors. Summed up:
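A synthetic nanobody library was expressed on Saccharomyces cerevisiae BJ5465 by galactose induction for 36–48 hours. The library was stained for 1 hour at 4 °C with 10% biotinylated, detergent-solubilized Sf9 membrane reagent and enriched with streptavidin microbeads before FACS. Low and high (top ~1%) gates were set on anti-HA fluorescence for expression and streptavidin fluorescence for reagent binding, and each polyreactivity label reflects the gate of origin.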
Turning to “QVQLVESGGGLVQAGGSLRLSSAASGSTLGVYAMGWYRQAPGKERELVAGITRGGGRTYYADSVKGRFTISRENAKNTVYLQMNSLKPEDTAVYYCNKGQRGPYDYWGQGTQVTVSS”, the “polyreactivity (PSR sort gate)” value is on record as “high polyreactivity”.
As for “QVQLVESGGGLVQAGGSLRLSCAASGSIFQFYTMGWYRQAPGKERELVAAISSGGTRRYYADSVKGRFTISRDNAKNTVYLQMNSLKPEDTAVYYCAAPWSSSWSGVRTRMGYWGQGTQVTVSS”, the “polyreactivity (PSR sort gate)” value is listed as “high polyreactivity”.
Turning to “QVQLVESGGCLVQAGGRLRLSCAPSGFTFRKYAMGWYRQAPGKERQLVAAITANGGRTYNADSVKGRFTISRDNAKYTDYLKMNSLKPEDTSVYYCYARPSRGFRPRSAYGYWGQGTQVTVSS”, the “polyreactivity (PSR sort gate)” value is listed as “high polyreactivity”.
For the sequence “QVQLVESGGGLVQAGGSLRLSCAASGSTFYYNVMGWYRQAPGKEREFVAAITQRGGSTYYADSVKGRFTISRDNAKNTVYLQMNSLKPEDTAVYYCAARTRYDFDWGQGTQVTVSS”, the “polyreactivity (PSR sort gate)” value is “high polyreactivity”.
For the sequence “QVQLVESGGGLVQAGGSLRLSCAASGSIFRPNAMGWYRQAPGKERELVAAITFRGSRTYYADSVKGRFTISRDNAKNPVYLQMNSMKPEDTAVYYCNRLAGQDQEFEYWGQGTQVTVSS”, the “polyreactivity (PSR sort gate)” value is on record as “high polyreactivity”.
Under “QVQLVESGGGLVQAGGSLRLSCAASGRIFFTNDMGWYRQAPGKERELVATITGNGASTFYADSVKGRFTISRDNAKNTVYLQMNSLKPEDSAVYYCNADRSSYPRYDYWGQGTLVTVSS” stands “low polyreactivity”; under “QVQLVESGVVLVQAGGSLRLSCAASGYTFRVYTMGWYRQAPGKERELVAAISRRGSRTYYADSVKGRFTISRDYAKNTVYLQKNSLKPEDTAVYYCAAGIPYPDDYWGLGTQVTVSS”, “high polyreactivity”; under “QVQLVESGGGLVQAGGSLRLSCAASGNTFPYYAMGWYRQAPGKEREYVATIDRGDGSTYYADSVKGRFTISRDNAKNTVYLQMNSVKPEDTAVYYCAKLRGAFIVPGRGYPIYYYWGQGTQVTVSS”, “high polyreactivity”.
Under “QVQLVDSGGGLVQAGGSLRLSCAASGSIFSVYSMGGNRQATGKERELVASISRTGTTNYADSVKGSFTISRDNAKNTVYLQMNSLKPEDTAVFYCATDFTDWDVFLIKEFGYDYWGQGTQVTVSS” stands “low polyreactivity”; under “QVQLVESGGGLVQAGGSLRLSCAASGFTLAYYAMGWSRQAPGKERELVAAISWSGDTTYYADSVKGRFTISRDNAKNTVYLQMNSLKPEDTAVYYCAADYYLWGQGTQVTVSS”, “high polyreactivity”; under “QVQLDESGGRLVQAGGSLRLSCAASGSIFKVNAMGWYRQAPGKERELVAVISKRGGSTYYADSVKGRFTISRDHAKNTVYLQMNSLKPEDTAVYYCAAGKAPPSLRWVARIGKYEYWGQGTQVTVSS”, “low polyreactivity”.
In the case of “QVQLVESGGGLVQAGGSLRLSCAASGGIFKYNAMGWYRQAPGKERELVAAIDTSGGSTYYADSVKGRFTISRDNAKNTVYLQMNSLKPEDTAVYYCAAELGLAQYYYWGQGTQVTVSS” it was “low polyreactivity”; in that of “QVQLVESGGGIVQAGGSLRLISAASGIIIDYYAMGWYRQAPGKERELVAAITSGGSTSYADSVKGRFTISRDNAKNTVYLQMNSLKAEDTAVYYCNTEPSGYESGYWGQGTLVTVSS”, “low polyreactivity”.
For “QVQLVESGGGLVQAGGSLRLSCAASGSIGVNAMGWYRQAPGKERELVATISNSGGSTYYADSVKGRFTISRDNAKNTVYLQINSLKPEDTAVYYCAVAVTSYSSKKLYYWGQGTQVTVSS”, the “polyreactivity (PSR sort gate)” value is “low polyreactivity”.
In the case of “QVQLVESGGGLVQAGGSLRLSCSASGLIYYYYTMGWYRPPPGKERELVAVISSSGGSTYYADSVKGRFTISRDNAKNTVYLQMNSLKPEDTAVYYCAAVYHFQYGAYDYWGQGTQGTVSS” it was “high polyreactivity”.
On to “QVQLVESGGGLVQAGGSLRLSSAASGNIFPAYPMGWYRQAPGKERELVAAISKSGGRTYYADSVKGRFTISRDNAKNTVYLQMNSLKPEDTAVYYALLTVLRAVPYSVRYDYWGQGTQVTVSS”, for which the “polyreactivity (PSR sort gate)” value is reported as “high polyreactivity”.
Under “QVQLVESGGGLVQAGGSLRLSCAASGRTFWYYTMGWYRQAPGKERELVAAISSGGRTNYADSVKGRFTISRDNAKITVYLQMNSLKPEDTAVYYCATSRYYKYVERDYWGQGTQVTVSS” stands “high polyreactivity”; under “QVQLVESGGGLVQAGGSLRLSCAASGRILPLYAMGWSRQAPGKERELVATMILDGDSTYYADSVKGRFTISRDNAKNTVYLQMNSQKPEDTAVYYCNDDYTPWGRGYPYDYWGQGSQVTVSS”, “low polyreactivity”.
Under “QVQLVESGGGLVQAGGSLRLSCAASGSTFSSNAMGWYRQAPGKERELVAAINRTGNTYYADSVKGRFTISRDNAKNTVYLQMNSLKPEDTAVYYRNTVLNLYRGGGYWGQGTQVTVSS” stands “low polyreactivity”; under “QVQLVESGGGLVQEGGSLRLSCAASGFTFPYYAMGWYRQAPGKERELVAAISNGGSNTYYADSVKGRFTISRDNAKNTVYVQMNSLKPEDTAVYYCAARVGGSYDYWGQGTQVTVSS”, “high polyreactivity”.
In the case of “QVQLVESGGGLVQAGGSLRLSCAASGSIFSSNAMGWYRQAPGKERELVAAISSSGSRTYYADSVKGRFTISRDNAKNTVYLQMNSLKPEDTAVYYCAAVIRYTRSYDYWGQGTQVTVSS” it was “high polyreactivity”; in that of “QVQLVESGGGLVQAGGSRRLSCAASGRIFTTYAMGWYRQAPGKERELVAAITRNGGRTYYADSVKGRFTLSRDNAKNTVYVPMHSLKPEDTAVYYCAAVYRSFGKVYGMDYWGQGTQVTVSS”, “high polyreactivity”; in that of “QVQLVESCGGLLQAGGSLPLSCPASGSISSYYAMGWYRQAPGKERELVASITSGASTNYADSVKGRFTISRDNAKNTVYLQMNSLKPEDTAVYYCAAYVVTYYYGTGYYSYDYWGQGSQVTVSS”, “low polyreactivity”.
For “QVQLVESGGGLVQAGGSLRLSCAASGRTFRGYVMGWYRQAPGKERELVAAISKSGGSTYYADSVKGRFTISRDNAKNTVYLQMNSLKPEDTAVYYCSKNYRYSVFYDGFDYWGQGTQVTVSS”, the “polyreactivity (PSR sort gate)” value was “low polyreactivity”.
For the sequence “QVQLVESGGGIYKAGGSLRLSCAASGSIIKINTLGRYRQAPRKERELVAAISTRGGSTYYADSVKGRFTISRDNSKNTVYLQMNSLKPDDTAVYFCAARQFYKYYYWGQGTQVTVSS”, the “polyreactivity (PSR sort gate)” value is “high polyreactivity”.
For “QVQLVESGGGLVQAGGSLRLSCAASGNIFRGYTMGWYRQAPGKERELVAVISFGDGGTYYADSVKGRFTISRDNAKNTVYLQMNSLKPEDTAVYYCATDYQSTSVWGGHFVINPYDYWGQGTQVTVSS”, the “polyreactivity (PSR sort gate)” value was “low polyreactivity”.
Consider “QVQLVESGGGLVQAGGSLRLSCAASGSTLDSNAMGWYRQATGKERELVAAIDWSGGSTYYADSVKGRFTISRDHAKNTVYLQMNSLKPEDTAVYYCAADDSSINYGDFDYWGQGTQVTVSS”, for which the “polyreactivity (PSR sort gate)” value is listed as “low polyreactivity”.
In the case of “QVQLVESGGGLVQAGGSLRLSCAASGRIFQYNAMGWYRQAPGKERELVAAIRRGGGSTYYADSVKGRFTISRDNAKNTVYLQMNSLKPEDTAVYYCADRRQRVSFYPEYDYWGQGTQVTVSS”, the “polyreactivity (PSR sort gate)” value is reported as “low polyreactivity”.
Regarding “QVQLVESGGGLDQAGGSLRLSCAASGFISPWYAMGWYRPAPGKERELDAAIDWSGGSTYYADSVKGRFTISRDNAKNTVYIQMKSLKPEDTAVYYCAARYYTAAVRAGRVRMYSWGQGTQVTVSS”, the “polyreactivity (PSR sort gate)” value is “high polyreactivity”.
With “QVQLVESGGGLVQAGGSLRLSCAASGRIFLRYAMGWYRQAPGKERELVAAIDFSAGSTYYADSVKGRFTISRDNAKNTVYLQMNSLKPEDTAVYYCATRLGVLYDYWGQGTQVTVSS”, the “polyreactivity (PSR sort gate)” value is given as “low polyreactivity”.
As to “QVQLVESGRGLVQAGGSLRLSCAASGSILYSYAMGWYRQAPGKERELVAAISSSGGTNYAASVKGSFTISRDNAKNTVYLQMNSLKPEDTEVYYCNADVLDGGYDYWGQGTQVTVSS”, the “polyreactivity (PSR sort gate)” value is reported as “low polyreactivity”.
“QVQLVESGGGLVKAGGSLRLSCAASGLISWLYVMGWYRQAPGKERELVAAIRYSGGRTYYADSVKGRFTISRDNAKNTVYLQMHSMKPEDTAVYYCNALPWALYDSTSIYYYWGQGTQVTVSS”: the “polyreactivity (PSR sort gate)” value is recorded as “low polyreactivity”.
In the case of “QVQLVESGGGLVQAGGSLRLSCAASGSIFHPYTMGWYRQAPGKERELVAAISWSGGNTNYADSVKGRFTISRDNAKNTVYLQMNSLKPDDTAVYYCIKATNLSGGYDSWGLGTQVTVSS” it was “low polyreactivity”; in that of “QVQLVESGGGLVQAGGSLRLSCAASGRTFVHYTMGWYRQAPGKERELVATISTSGGSTSYADSVKGRFTISRDNAKNTVYLQMNSLIPEDTAVYYCAARWYFPDRVKYDYWGQGTQVTVSS”, “low polyreactivity”; in that of “QVQHVESGGGLVQAGGSLRLSCAASGSTFAVYTMGWYRQAPGKERELSTSYADSVKGRFTISRDNAKNTVYLQMNSLKPEDTAVYYCNRDFYEFDSNSYRFDYWGQGTQVTVSS”, “low polyreactivity”.
In the case of “QVQRVESGGGLVQAGGSLRLSCAASGSIFEPYAMGCYRQAPGKESELVATAITYSGGSTYYADSVKGRFTISRDNAKNTVYLQMNSLKPEDTAVYYCAADDLGDGVYKLDYWGLGTQVTVSS” it was “low polyreactivity”; in that of “QVQLVESGGGLVQAGGSLRLSCAASGSIFYYNAMGWYRQAPGKERELVAAISSDGGTYYADSVKGRFTISRDNAKNTVYLQMNSLKPEDTAVYYCNAEVFWWDQWYDYWGQGTQVTVSS”, “high polyreactivity”; in that of “QVQLVESGGGLVQAGGSLRLICAASGSTSYVYAMGWYRQAPGKERELVAAISGSGGRTYYADSVKGRFTISRDNAKNTVYLQMNSLKPEDTAVYYCNALPRPSYPFEYWGQGTQVTVSS”, “high polyreactivity”.
Consider “QVQLVDSGGGLVQAGGSLSLSCAASGFTFVRYAMGWYRQAPGKERELVAAISGRGGSTYFADSVKGRFTISRDYAKNTVYLQMNSLKPDDTAVYYCATDYSRTFDYWGQGTQVTVSS”, for which the “polyreactivity (PSR sort gate)” value is “high polyreactivity”.
In the case of “QVQLVESGGGLVQAGGSLRLSCAASGRTGYMGWYRQAPGKERELVAAITSRGGSTYYADSVKGRFTISRDNAKNTVYLQMNSLKPEDTAVYYCAAPAYHKRTSRGDYWGQGTQVTVSS” it was “low polyreactivity”.
With “QVQLVESGGGLVQAGGSLRLSCAASGRTFNYNAMGWYRQAPGKERELVAAINYNGGSTYYADSVKGRFTISRDNAKNTVYVQMNSLKPEDTAVYYCAADYNEYDWGQGTQVTVSS”, the “polyreactivity (PSR sort gate)” value is “low polyreactivity”.
